# Measurements taken from the supplement of paper PMC6755084.
# B1: minF1; the commonest letter at each place (parent)
# chain: GAGACCGCAACTGAAAAGTTGTTATCAGAAATGGATGGGTTGAATTTCTGCACGTAGAAGCAAAAGGC
# Variants of: B1
# Test: fraction ligated after 30 min (ligated reads / total reads); higher = more ligase activity
# Settings: with F1*subA RNA substrate (template-directed ligation), 42 °C
# Procedure, shortened: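 Templates from an oligo pool encoding minimized ligase ribozyme variants were amplified by PCR, transcribed with T7, and purified on gels. Gel electrophoresis separated ligated from unligated RNAs, which were then reverse transcribed using barcoded primers and sequenced on a MiSeq, keeping core bases with quality ≥30. For each variant, fraction ligated equals ligated reads divided by total reads.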
row,Variant,fraction ligated
1,T36A A44C,0.00684
2,T36A A44G,0.00875
3,T36C A43G,0.00496
4,T36C A43C,0.00423
5,T36C A43T,0.00367
6,G33C G34T,0.00568
7,G33C G34C,0.00483
8,G33C G34A,0.18
9,G42C A43T A44T,0.00299
10,G42C A43T A44G,0.0022
11,G42C A43T A44C,0.000795
12,G33A A35T,0.0202
13,G33A A35C,0.026
14,G33A A35G,0.265
15,G37A G42T,0.00089
16,G37A G42C,0.00225
17,G37A G42A,0.00332
18,A35C G37T,0.00578
19,A35C G37A,0.00266
20,A35C G37C,0.00352
21,G34C T36G,0.00561
22,G34C T36C,0.00419
23,G34C T36A,0.00257
24,T32G,0.02

row,Variant,fraction ligated
1,T32C,0.0302
2,G42C A43C A44G,0.00342
3,G42C A43C A44T,0.00191
4,G42C A43C A44C,0.00224
5,G37A A44G,0.00429
6,G37A A44C,0.00309
7,G37A A44T,0.00574
8,G34T A43T,0.00646
9,G34T A43C,0.00412
10,G34T A43G,0.0028
11,A35G A43C,0.00434
12,A35G A43G,0.00504
13,A35G A43T,0.0109
14,A35G G42T,0.00567
15,A35G G42C,0.00281
16,A35G G42A,0.0121
17,T36A G37T,0.0153
18,T36A G37C,0.00357
19,T36A G37A,0.00486
20,G33T G42T,0.0256
21,G33T G42C,0.0103
22,G33T G42A,0.0913
23,G33A A44G,0.576
24,G33A A44T,0.553

row,Variant,fraction ligated
1,G33A A44C,0.479
2,G42C A44T,0.00542
3,G42C A44G,0.00439
4,G42C A44C,0.00284
5,G33C G42T,0.0409
6,G33C G42C,0.011
7,G33C G42A,0.132
8,A35C A44C,0.00567
9,A35C A44T,0.0114
10,A35C A44G,0.00784
11,A35G G37A,0.00295
12,A35G G37T,0.00458
13,A35G G37C,0.0017
14,T32G G33C,0.00893
15,T32G G33A,0.0116
16,T32G G33T,0.0125
17,A35T T36A,0.0108
18,A35T T36G,0.00748
19,A35T T36C,0.00257
20,G42A A43C A44C,0.00102
21,G42A A43C A44G,0.00203
22,G42A A43C A44T,0.00211
23,G33T G37A,0.00704
24,G33T G37T,0.00922

row,Variant,fraction ligated
1,G33T G37C,0.00397
2,G34C A35T,0.00667
3,G34C A35C,0.00352
4,G34C A35G,0.00539
5,G37C A44T,0.00681
6,G37C A44C,0.00161
7,G37C A44G,0.00293
8,G33T A35G,0.0792
9,G33T A35T,0.0191
10,G33T A35C,0.0181
11,G42T A43C,0.000975
12,T36G A44C,0.00345
13,T36G A44G,0.00979
14,T36G A44T,0.0156
15,T32C A43C,0.00725
16,T32C A43G,0.0128
17,T32C A43T,0.00881
18,A35T G42C,0.00256
19,A35T G42T,0.00285
20,A35T G42A,0.00343
21,T32G A43C,0.00832
22,T32G A43T,0.0529
23,T32G A43G,0.196
24,A35T A43C,0.00462

row,Variant,fraction ligated
1,A35T A43T,0.00405
2,A35T A43G,0.0022
3,G34T A44T,0.00748
4,G34T A44C,0.00445
5,G34T A44G,0.00592
6,G33T G34C,0.00646
7,G33T G34T,0.00514
8,G33T G34A,0.051
9,G42C A43G A44G,0.00392
10,G42C A43G A44T,0.00288
11,G42C A43G A44C,0.000834
12,A35G A44C,0.0421
13,A35G A44T,0.105
14,A35G A44G,0.0773
15,A35T A44T,0.00912
16,A35T A44G,0.0054
17,A35T A44C,0.00563
18,G37C A43T,0.00493
19,G37C A43G,0.00302
20,G37C A43C,0.00193
21,A35C T36C,0.00473
22,A35C T36G,0.00841
23,A35C T36A,0.00922
24,T32C G34T,0.00428

row,Variant,fraction ligated
1,T32C G34A,0.00321
2,T32C G34C,0.00341
3,T36C G42A,0.00494
4,T36C G42C,0.00306
5,T36C G42T,0.00209
6,G37T,0.0174
7,G37A,0.00659
8,G37C,0.00417
9,G34T G37A,0.00473
10,G34T G37C,0.00496
11,G34T G37T,0.00356
12,G34C A43G,0.00118
13,G34C A43C,0.00266
14,G34C A43T,0.0056
15,A35G T36G,0.00747
16,A35G T36A,0.00856
17,A35G T36C,0.00252
18,G42A A43T A44T,0.00133
19,G42A A43T A44C,0.00312
20,G42A A43T A44G,0.000353
21,G34T A35C,0.00324
22,G34T A35T,0.00561
23,G34T A35G,0.0067
24,T36G A43C,0.00461

row,Variant,fraction ligated
1,T36G A43G,0.00457
2,T36G A43T,0.00809
3,G34A A43C,0.00464
4,G34A A43G,0.00716
5,G34A A43T,0.00502
6,T36A G42T,0.00416
7,T36A G42C,0.0064
8,T36A G42A,0.00342
9,G33C A35T,0.0199
10,G33C A35G,0.0844
11,G33C A35C,0.0133
12,A35G,0.271
13,A35T,0.037
14,A35C,0.0267
15,A35T G37T,0.00238
16,A35T G37A,0.00299
17,A35T G37C,0.00461
18,G34C G42C,0.00271
19,G34C G42A,0.00229
20,G34C G42T,0.00284
21,G42A A44T,0.0746
22,G42A A44G,0.0717
23,G42A A44C,0.024
